Measured values: patent US20170081409A1 (AGENUS, published 2017)

Target: T1, human PD-1 expressed by activated (SEA-stimulated) primary human CD4+ T cells (human, UniProt Q15116 25-288)
T1 construct: whole, on cells; also called programmed cell death protein 1
Experiment: flow cytometry on SEA-stimulated human PBMC, CD4+ gate
Experimental: The anti-PD-1 antibodies AGEN2046w, AGEN2047w, and AGEN2034w were examined for binding to activated peripheral blood mononuclear cells (PBMCs) by flow cytometry. Cryopreserved human PBMCs prepared from unpurified buffy coats (Research Blood Components, Catalog number (Cat#) 002) or cryopreserved cynomolgus PBMCs (Worldwide Primates Inc., customer order) were plated at 10⁵ cells/well in RPMI1640 medium supplemented with Normocin™ (InvivoGen, Cat#ant-nr-1) and 10% heat-inactivated FBS (Gibco, Cat#16140063) in 96-well NUNCLON delta surface plates (NUNC™). The cells were cultured in the presence of 100 ng/ml of Staphylococcus Enterotoxin A (SEA; for human PBMCs) (Toxin Technologies, Cat#at101red) or Staphylococcus Enterotoxin B (SEB; for cynomolgus PBMCs) (Toxin Technology, Cat#bt202red) for 5 days at 37° C., 5% CO₂, and 97% humidity. […] The cells were washed twice with sample buffer and then resuspended in sample buffer and analyzed with a FACS Fortessa cytometer (Becton Dickinson). CD4+ T cells were gated and the mean fluorescence intensity (MFI) was recorded.
The binding of AGEN2034w to activated primary human T cells was measured again in a similar assay. […] Cells were analyzed with a FACS Fortessa cytometer (Becton Dickinson). CD4+ T cells were gated and the mean fluorescence intensity (MFI) of AGEN2034w-positive cells was determined.

T1 sequence (Q15116 25-288): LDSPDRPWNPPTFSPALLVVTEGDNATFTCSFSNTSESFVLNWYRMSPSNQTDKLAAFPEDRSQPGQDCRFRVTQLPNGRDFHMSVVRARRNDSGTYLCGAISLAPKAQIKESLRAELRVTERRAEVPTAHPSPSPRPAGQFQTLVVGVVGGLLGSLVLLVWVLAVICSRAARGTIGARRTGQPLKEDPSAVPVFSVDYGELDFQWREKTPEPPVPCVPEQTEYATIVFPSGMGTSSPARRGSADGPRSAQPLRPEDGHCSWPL

B1: AGEN2046w (antibody, human IgG1, kappa, V domains shown)
VH: QVQLVESGGGVVQPGRSLRLSCAASGFTFSSYGMHWVRQAPGKGLEWVAVIWYDGSNKYYADSVKGRFTISRDNSKNTLYLQMNSLRAEDTAVYYCASNVDYWGQGTLVTVSS
VL: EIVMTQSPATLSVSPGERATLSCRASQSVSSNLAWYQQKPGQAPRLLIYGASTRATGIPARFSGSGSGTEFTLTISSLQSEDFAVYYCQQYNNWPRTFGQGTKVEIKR
  binding result: binds
